# Measurements: patent US20260049138A1 (Chugai, published 2026)
# Residue numbers refer to the chain shown, from its start. In names and notes the source's numbering stands.
# B1: GLS3000 R29A one-arm antibody (antibody, human IgG1, kappa, L234A L235A, N297A, name in Kabat numbering)
# heavy: QVQLVESGGGVVQPGRSLRLSCAASGFTFSNAWMHWVRQAPGKGLEWVAQIKAKSNNYATYYAESVKGRFTISRDDSKNSLYLQMNSLKTEDTAVYYCRYVHYGAYYGVDAWGQGTTVTVSSASTKGPSVFPLAPSSKSTSGGTAALGCLVKDYFPEPVTVSWNSGALTSGVHTFPAVLQSSGLYSLSSVVTVPSSSLGTQTYICNVNHKPSNTKVDKKVEPKSCDKTHTCPPCPAPEAAGGPSVFLFPPKPKDTLMISRTPEVTCVVVDVSHEDPEVKFNWYVDGVEVHNAKTKPREEQYASTYRVVSVLTVLHQDWLNGKEYKCKVSNKALPAPIEKTISKAKGQPREPQVYTLPPSRCELTKNQVSLSCAVKGFYPSDIAVEWESNGQPENNYKTTPPVLDSDGSFFLVSKLTVDKSRWQQGNVFSCSVMHEALHNHYTQKSLSLSPDYKDDDDK
# chain: EPKSSDKTHTCPPCPAPELLGGPSVFLFPPKPKDTLMISRTPEVTCVVVDVSHEDPEVKFNWYVDGVEVHNAKTKPREEQYNSTYRVVSVLTVLHQDWLNGKEYKCKVSNKALPAPIEKTISKAKGQPREPQVCTLPPSRDELTKNQVSLWCLVKGFYPSDIAVEWESNGQPENNYKTTPPVLDSDGSFFLYSKLTVDKSRWQQGNVFSCSVMHEALHNRYTQKSLSLSP
# light: DIVMTQSPLSLPVTPGEPASISCRSSQSLVHSNANTYLHWYQQKPGQAPRLLIYKVSNRFSGVPDRFSGSGSGTDFTLKISRVEAEDVGVYYCGQGTQVPYTFGQGTKLEIKRTVAAPSVFIFPPSDEQLKSGTASVVCLLNNFYPREAKVQWKVDNALQSGNSQESVTEQDSKDSTYSLSSTLTLSKADYEKHKVYACEVTHQGLSSPVTKSFNRGEC
# B2: GLS3000 R29D one-arm antibody (antibody, human IgG1, kappa, L234A L235A, N297A, name in Kabat numbering)
# heavy: B1 heavy
# chain: B1 chain
# light: B1 light with A34D
# B3: GLS3000 R29G one-arm antibody (antibody, human IgG1, kappa, L234A L235A, N297A, name in Kabat numbering)
# heavy: B1 heavy
# chain: B1 chain
# light: B1 light with A34G
# B4: GLS3000 R29I one-arm antibody (antibody, human IgG1, kappa, L234A L235A, N297A, name in Kabat numbering)
# heavy: B1 heavy
# chain: B1 chain
# light: B1 light with A34I
# B5: GLS3000 R29L one-arm antibody (antibody, human IgG1, kappa, L234A L235A, N297A, name in Kabat numbering)
# heavy: B1 heavy
# chain: B1 chain
# light: B1 light with A34L
# B6: GLS3000 R29P one-arm antibody (antibody, human IgG1, kappa, L234A L235A, N297A, name in Kabat numbering)
# heavy: B1 heavy
# chain: B1 chain
# light: B1 light with A34P
# B7: GLS3000 R29S one-arm antibody (antibody, human IgG1, kappa, L234A L235A, N297A, name in Kabat numbering)
# heavy: B1 heavy
# chain: B1 chain
# light: B1 light with A34S
# B8: GLS3000 R29T one-arm antibody (antibody, human IgG1, kappa, L234A L235A, N297A, name in Kabat numbering)
# heavy: B1 heavy
# chain: B1 chain
# light: B1 light with A34T
# B9: GLS3000 R29V one-arm antibody (antibody, human IgG1, kappa, L234A L235A, N297A, name in Kabat numbering)
# heavy: B1 heavy
# chain: B1 chain
# light: B1 light with A34V
# B10: GLS3000 R29Y one-arm antibody (antibody, human IgG1, kappa, L234A L235A, N297A, name in Kabat numbering)
# heavy: B1 heavy
# chain: B1 chain
# light: B1 light with A34Y
# B11: GLS3000 R54A one-arm antibody (antibody, human IgG1, kappa, L234A L235A, N297A, name in Kabat numbering)
# heavy: B1 heavy
# chain: B1 chain
# light: B1 light with A34R, R59A
# B12: GLS3000 R54D one-arm antibody (antibody, human IgG1, kappa, L234A L235A, N297A, name in Kabat numbering)
# heavy: B1 heavy
# chain: B1 chain
# light: B1 light with A34R, R59D
# B13: GLS3000 R54E one-arm antibody (antibody, human IgG1, kappa, L234A L235A, N297A, name in Kabat numbering)
# heavy: B1 heavy
# chain: B1 chain
# light: B1 light with A34R, R59E
# B14: GLS3000 R54G one-arm antibody (antibody, human IgG1, kappa, L234A L235A, N297A, name in Kabat numbering)
# heavy: B1 heavy
# chain: B1 chain
# light: B1 light with A34R, R59G
# B15: GLS3000 R54P one-arm antibody (antibody, human IgG1, kappa, L234A L235A, N297A, name in Kabat numbering)
# heavy: B1 heavy
# chain: B1 chain
# light: B1 light with A34R, R59P
# B16: GLS3000 R54Q one-arm antibody (antibody, human IgG1, kappa, L234A L235A, N297A, name in Kabat numbering)
# heavy: B1 heavy
# chain: B1 chain
# light: B1 light with A34R, R59Q
# B17: GLS3000 R54S one-arm antibody (antibody, human IgG1, kappa, L234A L235A, N297A, name in Kabat numbering)
# heavy: B1 heavy
# chain: B1 chain
# light: B1 light with A34R, R59S
# B18: GLS3000 R54T one-arm antibody (antibody, human IgG1, kappa, L234A L235A, N297A, name in Kabat numbering)
# heavy: B1 heavy
# chain: B1 chain
# light: B1 light with A34R, R59T
# B19: GLS3000 R54W one-arm antibody (antibody, human IgG1, kappa, L234A L235A, N297A, name in Kabat numbering)
# heavy: B1 heavy
# chain: B1 chain
# light: B1 light with A34R, R59W
# B20: GLS3000 R77S one-arm antibody (antibody, human IgG1, kappa, L234A L235A, N297A, name in Kabat numbering)
# heavy: B1 heavy
# chain: B1 chain
# light: B1 light with A34R, R82S
# B21: GLS3000 S25A one-arm antibody (antibody, human IgG1, kappa, L234A L235A, N297A, name in Kabat numbering)
# heavy: B1 heavy
# chain: B1 chain
# light: B1 light with S25A, A34R
# B22: GLS3000 S25D one-arm antibody (antibody, human IgG1, kappa, L234A L235A, N297A, name in Kabat numbering)
# heavy: B1 heavy
# chain: B1 chain
# light: B1 light with S25D, A34R
# B23: GLS3000 S25E one-arm antibody (antibody, human IgG1, kappa, L234A L235A, N297A, name in Kabat numbering)
# heavy: B1 heavy
# chain: B1 chain
# light: B1 light with S25E, A34R
# B24: GLS3000 S25I one-arm antibody (antibody, human IgG1, kappa, L234A L235A, N297A, name in Kabat numbering)
# heavy: B1 heavy
# chain: B1 chain
# light: B1 light with S25I, A34R
# B25: GLS3000 S25L one-arm antibody (antibody, human IgG1, kappa, L234A L235A, N297A, name in Kabat numbering)
# heavy: B1 heavy
# chain: B1 chain
# light: B1 light with S25L, A34R
# B26: GLS3000 S25M one-arm antibody (antibody, human IgG1, kappa, L234A L235A, N297A, name in Kabat numbering)
# heavy: B1 heavy
# chain: B1 chain
# light: B1 light with S25M, A34R
# B27: GLS3000 S25P one-arm antibody (antibody, human IgG1, kappa, L234A L235A, N297A, name in Kabat numbering)
# heavy: B1 heavy
# chain: B1 chain
# light: B1 light with S25P, A34R
# B28: GLS3000 S25T one-arm antibody (antibody, human IgG1, kappa, L234A L235A, N297A, name in Kabat numbering)
# heavy: B1 heavy
# chain: B1 chain
# light: B1 light with S25T, A34R
# B29: GLS3000 S25V one-arm antibody (antibody, human IgG1, kappa, L234A L235A, N297A, name in Kabat numbering)
# heavy: B1 heavy
# chain: B1 chain
# light: B1 light with S25V, A34R
# B30: GLS3000 S26D one-arm antibody (antibody, human IgG1, kappa, L234A L235A, N297A, name in Kabat numbering)
# heavy: B1 heavy
# chain: B1 chain
# light: B1 light with S26D, A34R
# B31: GLS3000 S26E one-arm antibody (antibody, human IgG1, kappa, L234A L235A, N297A, name in Kabat numbering)
# heavy: B1 heavy
# chain: B1 chain
# light: B1 light with S26E, A34R
# B32: GLS3000 S26P one-arm antibody (antibody, human IgG1, kappa, L234A L235A, N297A, name in Kabat numbering)
# heavy: B1 heavy
# chain: B1 chain
# light: B1 light with S26P, A34R
# B33: GLS3000 S27aD one-arm antibody (antibody, human IgG1, kappa, L234A L235A, N297A, name in Kabat numbering)
# heavy: B1 heavy
# chain: B1 chain
# light: B1 light with S28D, A34R
# B34: GLS3000 S27aE one-arm antibody (antibody, human IgG1, kappa, L234A L235A, N297A, name in Kabat numbering)
# heavy: B1 heavy
# chain: B1 chain
# light: B1 light with S28E, A34R
# Target: T1, CD3ε homodimer protein (human, UniProt P07766 23-126, limits assumed)
# T1 construct: also called CD3 (CD3ε)
# T1 sequence (P07766 23-126 limits assumed): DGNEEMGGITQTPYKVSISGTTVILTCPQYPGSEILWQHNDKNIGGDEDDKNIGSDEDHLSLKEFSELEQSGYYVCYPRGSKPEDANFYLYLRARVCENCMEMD
# Experiment: SPR Biacore T200, CD3ε homodimer on chip;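 also: Light-chain single-residue variant antibodies injected over amine-coupled CD3ε homodimer on a CM4 chip at 25 °C, bound amount divided by that of the GLS3000-containing antibody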
# Experimental: Each one-amino acid altered form constructed, expressed, and purified in the paragraph (6-2) was evaluated using Biacore T200 (GE Healthcare Japan Corp.). An appropriate amount of CD3ε homodimer protein was immobilized onto Sensor chip CM4 (GE Healthcare Japan Corp.) by the amine coupling method. Then, the antibody having an appropriate concentration was injected thereto as an analyte and allowed to interact with the CD3ε homodimer protein on the sensor chip. Then, the sensor chip was regenerated by the injection of 10 mmol/L glycine-HCl (pH 1.5). The assay was conducted at 25° C., and HBS-EP+ (GE Healthcare Japan Corp.) was used as a running buffer. […] Each parameter was calculated using Biacore T200 Evaluation Software (GE Healthcare Japan Corp.).
# Specifically, when the amount of the GLS3000-containing antibody bound was defined as X and the amount of the L chain one-amino acid altered form bound was defined as Y, a value of Z (ratio of amounts bound)=Y/X was used.
row,Binder,ratio of amount bound vs unaltered GLS3000
1,B1,0.63
2,B2,0.41
3,B3,0.67
4,B4,0.37
5,B5,0.56
6,B6,0.31
7,B7,0.68
8,B8,0.63
9,B9,0.34
10,B10,0.69
11,B11,0.69
12,B12,0.36
13,B13,0.58
14,B14,0.67
15,B15,0.84
16,B16,0.68
17,B17,0.79

row,Binder,ratio of amount bound vs unaltered GLS3000
1,B18,0.65
2,B19,0.78
3,B20,0.92
4,B21,0.92
5,B22,0.18
6,B23,0.21
7,B24,0.53
8,B25,0.24
9,B26,0.31
10,B27,1.01
11,B28,0.83
12,B29,0.73
13,B30,0.86
14,B31,0.74
15,B32,0.78
16,B33,0.79
17,B34,0.81
